We go through one molecule from patent US20180073013A1 (published 2018).

What all share (assay): cytokine release
Assay [1] deals with T1, HPV16 oncoprotein E5 peptide on HLA-B*15:01 (human).
T1 peptide: WITAASAF

Assay [2] concerns the target T2, HPV16 oncoprotein E5 peptide on HLA-B*15:01 (human).
T2 peptide: ASAFRCFIVY

Assay [3] has as its target T3, HPV16 oncoprotein E5 peptide on HLA-B*15:01 (human).
T3 peptide: AASAFRCFIVY

Assay [4] has as its target T4, HPV16 oncoprotein E5 peptide on HLA-B*15:01 (human).
T4 peptide: TAASAFRCFIVY

For assay [5], the target named is T5, HPV16 oncoprotein E5 peptide on HLA-B*15:01 (human).
T5 peptide: ITAASAFRCFIVY

Assay [6] addresses T6, HPV16 oncoprotein E5 peptide on HLA-B*15:01 (human).
T6 peptide: WITAASAFRCFIVY

Assay [7] concerns the target T7, HPV16 oncoprotein E5 peptide on HLA-B*15:01 (human).
T7 peptide: LLWITAASAF

The target of assay [8] is T8, HPV16 oncoprotein E5 peptide on HLA-B*15:01 (human).
T8 peptide: LLLWITAASAF

B1: HPV16 E5-specific TCR (TRAV17 + TRBV6-5) (TCR, V domains shown)
Valpha: SQQGEEDPQALSIQEGENATMNCSYKTSINNLQWYRQNSGRGLVHLILIRSNEREKHSGRLRVTLDTSKKSSSLLITASRAADTASYFCAESEYGNKLVFGAGTILRVKS
Vbeta: NAGVTQTPKFQVLKTGQSMTLQCAQDMNHEYMSWYRQDPGMGLRLIHYSVGAGITDQGEVPNGYNVSRSTTEDFPLRLLSAAPSQTSVYFCASSYRQQETQYFGPGTRLLVL
With B1, the binding result in assay [1] is “no recognition”; in assay [2], “recognises”; in assay [3], “recognises”; in assay [4], “recognises”; in assay [5], “recognises”; in assay [6], “recognises”. In addition, the binding result in assay [7] and in assay [8] was “no recognition” each time.
